This passage reports EC50 results from US20150045540A1 (published 2015).

In test [1] the target is T1, Placenta Growth Factor (PlGF), human (human, UniProt P49763 21-149).
T1 chain: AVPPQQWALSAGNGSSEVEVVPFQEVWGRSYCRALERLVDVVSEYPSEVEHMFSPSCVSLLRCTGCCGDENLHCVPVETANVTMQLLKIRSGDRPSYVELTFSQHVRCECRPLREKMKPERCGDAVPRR
Kind of test: ELISA.

For test [2], the target named is Hepatocyte Growth Factor (HGF), human (human, UniProt P14210 32-728). Kind of test: ELISA. A general note: An ELISA detects its analyte on a solid surface through an enzyme-linked reagent.

The term EC50 denotes the concentration needed to bring the measured effect to its halfway point. Low readings indicate greater potency, high ones weaker potency.

Hepatocyte Growth Factor (HGF), human, sequence (P14210 32-728): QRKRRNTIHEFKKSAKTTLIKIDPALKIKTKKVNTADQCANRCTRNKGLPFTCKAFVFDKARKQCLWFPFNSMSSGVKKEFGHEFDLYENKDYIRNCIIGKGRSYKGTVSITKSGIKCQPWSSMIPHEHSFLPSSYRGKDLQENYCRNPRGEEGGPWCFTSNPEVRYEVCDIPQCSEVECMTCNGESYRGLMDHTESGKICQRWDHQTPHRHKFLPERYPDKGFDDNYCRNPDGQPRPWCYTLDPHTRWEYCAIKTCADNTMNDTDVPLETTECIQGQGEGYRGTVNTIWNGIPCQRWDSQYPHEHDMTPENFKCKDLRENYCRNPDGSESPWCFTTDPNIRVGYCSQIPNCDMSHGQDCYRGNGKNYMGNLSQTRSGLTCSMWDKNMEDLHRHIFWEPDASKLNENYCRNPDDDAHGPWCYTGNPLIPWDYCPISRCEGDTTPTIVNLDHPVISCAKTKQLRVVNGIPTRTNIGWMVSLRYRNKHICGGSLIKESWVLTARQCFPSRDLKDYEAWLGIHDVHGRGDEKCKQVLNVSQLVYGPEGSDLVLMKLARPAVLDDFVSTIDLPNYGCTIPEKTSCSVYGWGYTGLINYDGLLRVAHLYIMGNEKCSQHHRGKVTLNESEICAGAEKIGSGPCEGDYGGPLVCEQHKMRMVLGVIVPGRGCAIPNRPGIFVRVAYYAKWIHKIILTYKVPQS

B1: HC 2/SLC 2 (antibody)
chain 1: GQGTLVTVSSASQPVLHQPPAMSSALGTTIRLTCTLRNDHDIGVYSVYWYQQRPGHPPRFLLRYFSQSDKSQGPQVPPRFSGSKDVARNRGYLSISELQPEDEAMYYCAMGARSRCWPRGFQSKHNSVTHVFGSGTQLTVLSQPKATPSVTLFPPSSEELQANKATLVCLMNDFYPGILTVTWKADGTPITQGVEMTTPSKQSNNKYAASSYLSLTPEQWRSRRSYSCQVMHEGSTVEKTVAPAECS
chain 2: MSWAPVLLMLFVYCTGCGPQPVLHQPPAMSSALGTTIRLTCTLRNDHDIGVYSVYWYQQRPGHPPRFLLRYFSQSDKSQGPQVPPRFSGSKDVARNRGYLSISVTHVFGSGTQLTVLSQQVQLVQ
For the molecule B1, the EC50 amounted to 0.049 nM in test [1] and 0.051 nM in test [2].

B2: HC 2/SLC 3 (antibody)
chain 1: GQGTLVTVSSASQPVLHQPPAMSSALGTTIRLTCTLRNDHDIGVYSVYWYQQRPGHPPRFLLRYFSQSDKSQGPQVPPRFSGSKDVARNRGYLSISELQPEDEAMYYCAMGARSRCWPRGFQSKHNSVTHVFGSGTQLTVLSQPKATPSVTLFPPSSEELQANKATLVCLMNDFYPGILTVTWKADGTPITQGVEMTTPSKQSNNKYAASSYLSLTPEQWRSRRSYSCQVMHEGSTVEKTVAPAECS
chain 2: MSWAPVLLMLFVYCTGCGPQPVLHQPPAMSSALGTTIRLTCTLRNDHDIGVYSVYWYQQRPGHPPRFLLRYFSQSDKSQGPQVPPRFSGSKDVARNRGYLSISVTHVFGSGTQLTVLSQPQVQLVQ
In the case of B2, the EC50 was determined as 0.046 nM in test [1] and 0.058 nM in test [2].

B3: HC 10/SLC 2 (antibody)
chain 1: GQGTLVTVSSASTKGPSVFPQPVLHQPPAMSSALGTTIRLTCTLRNDHDIGVYSVYWYQQRPGHPPRFLLRYFSQSDKSQGPQVPPRFSGSKDVARNRGYLSISELQPEDEAMYYCAMGARSRCWPRGFQSKHNSVTHVFGSGTQLTVLSQPKATPSVTLFPPSSEELQANKATLVCLMNDFYPGILTVTWKADGTPITQGVEMTTPSKQSNNKYAASSYLSLTPEQWRSRRSYSCQVMHEGSTVEKTVAPAECS
chain 2: MSWAPVLLMLFVYCTGCGPQPVLHQPPAMSSALGTTIRLTCTLRNDHDIGVYSVYWYQQRPGHPPRFLLRYFSQSDKSQGPQVPPRFSGSKDVARNRGYLSISVTHVFGSGTQLTVLSQQVQLVQ
Consider B3, for which the EC50 in test [1] is 0.166 nM; in test [2], 0.063 nM.

B4: HC 5/SLC 8 (antibody)
chain 1: GQGTLVTVSSASTKGQPVLHQPPAMSSALGTTIRLTCTLRNDHDIGVYSVYWYQQRPGHPPRFLLRYFSQSDKSQGPQVPPRFSGSKDVARNRGYLSISELQPEDEAMYYCAMGARSRCWPRGFQSKHNSVTHVFGSGTQLTVLSQPKATPSVTLFPPSSEELQANKATLVCLMNDFYPGILTVTWKADGTPITQGVEMTTPSKQSNNKYAASSYLSLTPEQWRSRRSYSCQVMHEGSTVEKTVAPAECS
chain 2: MSWAPVLLMLFVYCTGCGPQPVLHQPPAMSSALGTTIRLTCTLRNDHDIGVYSVYWYQQRPGHPPRFLLRYFSQSDKSQGPQVPPRFSGSKDVARNRGYLSISVTHVFGSGTQLTVLSQPKATPSQVQLVQ
As to B4, the results for the EC50 in test [1] and in test [2] were 0.115 nM and 0.055 nM, respectively.

B5: HC 10/SLC 9 (antibody)
chain 1: GQGTLVTVSSASTKGPSVFPQPVLHQPPAMSSALGTTIRLTCTLRNDHDIGVYSVYWYQQRPGHPPRFLLRYFSQSDKSQGPQVPPRFSGSKDVARNRGYLSISELQPEDEAMYYCAMGARSRCWPRGFQSKHNSVTHVFGSGTQLTVLSQPKATPSVTLFPPSSEELQANKATLVCLMNDFYPGILTVTWKADGTPITQGVEMTTPSKQSNNKYAASSYLSLTPEQWRSRRSYSCQVMHEGSTVEKTVAPAECS
chain 2: MSWAPVLLMLFVYCTGCGPQPVLHQPPAMSSALGTTIRLTCTLRNDHDIGVYSVYWYQQRPGHPPRFLLRYFSQSDKSQGPQVPPRFSGSKDVARNRGYLSISVTHVFGSGTQLTVLSQPKATPSVQVQLVQ
Consider B5, for which the results for the EC50 in test [1] and in test [2] were 0.039 nM and 0.053 nM, respectively.

B6: HC 9/SLC 6 (antibody)
chain 1: GQGTLVTVSSASTKGPSVFQPVLHQPPAMSSALGTTIRLTCTLRNDHDIGVYSVYWYQQRPGHPPRFLLRYFSQSDKSQGPQVPPRFSGSKDVARNRGYLSISELQPEDEAMYYCAMGARSRCWPRGFQSKHNSVTHVFGSGTQLTVLSQPKATPSVTLFPPSSEELQANKATLVCLMNDFYPGILTVTWKADGTPITQGVEMTTPSKQSNNKYAASSYLSLTPEQWRSRRSYSCQVMHEGSTVEKTVAPAECS
chain 2: MSWAPVLLMLFVYCTGCGPQPVLHQPPAMSSALGTTIRLTCTLRNDHDIGVYSVYWYQQRPGHPPRFLLRYFSQSDKSQGPQVPPRFSGSKDVARNRGYLSISVTHVFGSGTQLTVLSQPKATQVQLVQ
For the molecule B6, the EC50 in test [1] was found to be 0.096 nM; in test [2] it was 0.059 nM.

B7: HC 3/SLC 10 (antibody)
chain 1: GQGTLVTVSSASTQPVLHQPPAMSSALGTTIRLTCTLRNDHDIGVYSVYWYQQRPGHPPRFLLRYFSQSDKSQGPQVPPRFSGSKDVARNRGYLSISELQPEDEAMYYCAMGARSRCWPRGFQSKHNSVTHVFGSGTQLTVLSQPKATPSVTLFPPSSEELQANKATLVCLMNDFYPGILTVTWKADGTPITQGVEMTTPSKQSNNKYAASSYLSLTPEQWRSRRSYSCQVMHEGSTVEKTVAPAECS
chain 2: MSWAPVLLMLFVYCTGCGPQPVLHQPPAMSSALGTTIRLTCTLRNDHDIGVYSVYWYQQRPGHPPRFLLRYFSQSDKSQGPQVPPRFSGSKDVARNRGYLSISVTHVFGSGTQLTVLSQPKATPSVTQVQLVQ
The molecule B7 registered an EC50 in test [2] of approximately 0.041 nM.

B8: HC 8/SLC 10 (antibody)
chain 1: GQGTLVTVSSASTKGPSVQPVLHQPPAMSSALGTTIRLTCTLRNDHDIGVYSVYWYQQRPGHPPRFLLRYFSQSDKSQGPQVPPRFSGSKDVARNRGYLSISELQPEDEAMYYCAMGARSRCWPRGFQSKHNSVTHVFGSGTQLTVLSQPKATPSVTLFPPSSEELQANKATLVCLMNDFYPGILTVTWKADGTPITQGVEMTTPSKQSNNKYAASSYLSLTPEQWRSRRSYSCQVMHEGSTVEKTVAPAECS
chain 2: MSWAPVLLMLFVYCTGCGPQPVLHQPPAMSSALGTTIRLTCTLRNDHDIGVYSVYWYQQRPGHPPRFLLRYFSQSDKSQGPQVPPRFSGSKDVARNRGYLSISVTHVFGSGTQLTVLSQPKATPSVTQVQLVQ
As to B8, the EC50 in test [2] was approximately 0.041 nM.

B9: HC 6/SLC 10 (antibody)
chain 1: GQGTLVTVSSASTKGPQPVLHQPPAMSSALGTTIRLTCTLRNDHDIGVYSVYWYQQRPGHPPRFLLRYFSQSDKSQGPQVPPRFSGSKDVARNRGYLSISELQPEDEAMYYCAMGARSRCWPRGFQSKHNSVTHVFGSGTQLTVLSQPKATPSVTLFPPSSEELQANKATLVCLMNDFYPGILTVTWKADGTPITQGVEMTTPSKQSNNKYAASSYLSLTPEQWRSRRSYSCQVMHEGSTVEKTVAPAECS
chain 2: MSWAPVLLMLFVYCTGCGPQPVLHQPPAMSSALGTTIRLTCTLRNDHDIGVYSVYWYQQRPGHPPRFLLRYFSQSDKSQGPQVPPRFSGSKDVARNRGYLSISVTHVFGSGTQLTVLSQPKATPSVTQVQLVQ
Consider B9, for which the EC50 in test [2] was approximately 0.041 nM.

B10: HC 4/SLC 15 (antibody)
chain 1: GQGTLVTVSSASTKQPVLHQPPAMSSALGTTIRLTCTLRNDHDIGVYSVYWYQQRPGHPPRFLLRYFSQSDKSQGPQVPPRFSGSKDVARNRGYLSISELQPEDEAMYYCAMGARSRCWPRGFQSKHNSVTHVFGSGTQLTVLSQPKATPSVTLFPPSSEELQANKATLVCLMNDFYPGILTVTWKADGTPITQGVEMTTPSKQSNNKYAASSYLSLTPEQWRSRRSYSCQVMHEGSTVEKTVAPAECS
chain 2: MSWAPVLLMLFVYCTGCGPQPVLHQPPAMSSALGTTIRLTCTLRNDHDIGVYSVYWYQQRPGHPPRFLLRYFSQSDKSQGPQVPPRFSGSKDVARNRGYLSISVTHVFGSGTQLTVLSQPKATPSVTGGGGSQVQLVQ
On to B10, for which the EC50 is 0.057 nM in test [1] and approximately 0.041 nM in test [2].

B11: HC 2/SLC 15 (antibody)
chain 1: GQGTLVTVSSASQPVLHQPPAMSSALGTTIRLTCTLRNDHDIGVYSVYWYQQRPGHPPRFLLRYFSQSDKSQGPQVPPRFSGSKDVARNRGYLSISELQPEDEAMYYCAMGARSRCWPRGFQSKHNSVTHVFGSGTQLTVLSQPKATPSVTLFPPSSEELQANKATLVCLMNDFYPGILTVTWKADGTPITQGVEMTTPSKQSNNKYAASSYLSLTPEQWRSRRSYSCQVMHEGSTVEKTVAPAECS
chain 2: MSWAPVLLMLFVYCTGCGPQPVLHQPPAMSSALGTTIRLTCTLRNDHDIGVYSVYWYQQRPGHPPRFLLRYFSQSDKSQGPQVPPRFSGSKDVARNRGYLSISVTHVFGSGTQLTVLSQPKATPSVTGGGGSQVQLVQ
B11: the EC50 in test [1] was determined as 0.053 nM; in test [2], 0.041 nM.

B12: HC 4/SLC 10 (antibody)
chain 1: GQGTLVTVSSASTKQPVLHQPPAMSSALGTTIRLTCTLRNDHDIGVYSVYWYQQRPGHPPRFLLRYFSQSDKSQGPQVPPRFSGSKDVARNRGYLSISELQPEDEAMYYCAMGARSRCWPRGFQSKHNSVTHVFGSGTQLTVLSQPKATPSVTLFPPSSEELQANKATLVCLMNDFYPGILTVTWKADGTPITQGVEMTTPSKQSNNKYAASSYLSLTPEQWRSRRSYSCQVMHEGSTVEKTVAPAECS
chain 2: MSWAPVLLMLFVYCTGCGPQPVLHQPPAMSSALGTTIRLTCTLRNDHDIGVYSVYWYQQRPGHPPRFLLRYFSQSDKSQGPQVPPRFSGSKDVARNRGYLSISVTHVFGSGTQLTVLSQPKATPSVTQVQLVQ
For B12, the EC50 in test [2] is approximately 0.041 nM.

B13: HC 4/SLC 9 (antibody)
chain 1: GQGTLVTVSSASTKQPVLHQPPAMSSALGTTIRLTCTLRNDHDIGVYSVYWYQQRPGHPPRFLLRYFSQSDKSQGPQVPPRFSGSKDVARNRGYLSISELQPEDEAMYYCAMGARSRCWPRGFQSKHNSVTHVFGSGTQLTVLSQPKATPSVTLFPPSSEELQANKATLVCLMNDFYPGILTVTWKADGTPITQGVEMTTPSKQSNNKYAASSYLSLTPEQWRSRRSYSCQVMHEGSTVEKTVAPAECS
chain 2: MSWAPVLLMLFVYCTGCGPQPVLHQPPAMSSALGTTIRLTCTLRNDHDIGVYSVYWYQQRPGHPPRFLLRYFSQSDKSQGPQVPPRFSGSKDVARNRGYLSISVTHVFGSGTQLTVLSQPKATPSVQVQLVQ
Consider B13, for which the EC50 in test [1] amounted to 0.101 nM; in test [2], 0.045 nM.
